Experimental data reported in patent US5597711A, “Factor VIII binding domain of von Willebrand factor” (The Scripps Research Institute, priority 1995, dated 1997).
One block for each compound: values may come before it.

Tests used:
[1] = biological target: T1, vWF-FVIII complex (Homo sapiens, UniProt P00451); assay: Dissociation of FVIII from vWF immobilized on polystyrene beads by washing; assay type: binding
T1 construct: The purification of FVIII from commercial factor VIII concentrate (Armour Pharmaceutical, Kankakee, IL), by immunoadsorbent chromatography; tissue Armour Pharmaceutical, Kankakee, Ill; host or cells: commercial factor VIII concentrate, both proteins purified in house by immunoadsorbent chromatography
T1 sequence (P00451 1668-2351 limits assumed): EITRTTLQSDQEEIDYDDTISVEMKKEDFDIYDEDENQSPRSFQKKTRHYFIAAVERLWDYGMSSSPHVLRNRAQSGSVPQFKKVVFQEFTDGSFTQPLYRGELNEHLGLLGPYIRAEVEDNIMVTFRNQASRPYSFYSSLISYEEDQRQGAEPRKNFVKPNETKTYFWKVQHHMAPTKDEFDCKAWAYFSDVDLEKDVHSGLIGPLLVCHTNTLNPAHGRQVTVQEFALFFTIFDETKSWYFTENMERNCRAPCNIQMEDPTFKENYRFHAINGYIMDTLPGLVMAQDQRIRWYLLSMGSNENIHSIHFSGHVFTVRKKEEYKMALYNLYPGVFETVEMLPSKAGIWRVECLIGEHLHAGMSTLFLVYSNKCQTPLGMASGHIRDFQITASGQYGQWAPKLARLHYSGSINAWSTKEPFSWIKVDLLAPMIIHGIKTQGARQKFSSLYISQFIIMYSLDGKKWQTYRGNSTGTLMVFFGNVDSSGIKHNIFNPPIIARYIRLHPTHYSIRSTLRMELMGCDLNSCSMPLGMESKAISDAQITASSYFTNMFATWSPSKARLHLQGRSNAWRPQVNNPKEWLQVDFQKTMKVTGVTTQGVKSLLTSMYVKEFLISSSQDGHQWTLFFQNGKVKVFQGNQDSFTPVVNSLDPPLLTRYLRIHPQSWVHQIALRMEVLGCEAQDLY
T1 sequence (P00451 20-759 partner limits assumed): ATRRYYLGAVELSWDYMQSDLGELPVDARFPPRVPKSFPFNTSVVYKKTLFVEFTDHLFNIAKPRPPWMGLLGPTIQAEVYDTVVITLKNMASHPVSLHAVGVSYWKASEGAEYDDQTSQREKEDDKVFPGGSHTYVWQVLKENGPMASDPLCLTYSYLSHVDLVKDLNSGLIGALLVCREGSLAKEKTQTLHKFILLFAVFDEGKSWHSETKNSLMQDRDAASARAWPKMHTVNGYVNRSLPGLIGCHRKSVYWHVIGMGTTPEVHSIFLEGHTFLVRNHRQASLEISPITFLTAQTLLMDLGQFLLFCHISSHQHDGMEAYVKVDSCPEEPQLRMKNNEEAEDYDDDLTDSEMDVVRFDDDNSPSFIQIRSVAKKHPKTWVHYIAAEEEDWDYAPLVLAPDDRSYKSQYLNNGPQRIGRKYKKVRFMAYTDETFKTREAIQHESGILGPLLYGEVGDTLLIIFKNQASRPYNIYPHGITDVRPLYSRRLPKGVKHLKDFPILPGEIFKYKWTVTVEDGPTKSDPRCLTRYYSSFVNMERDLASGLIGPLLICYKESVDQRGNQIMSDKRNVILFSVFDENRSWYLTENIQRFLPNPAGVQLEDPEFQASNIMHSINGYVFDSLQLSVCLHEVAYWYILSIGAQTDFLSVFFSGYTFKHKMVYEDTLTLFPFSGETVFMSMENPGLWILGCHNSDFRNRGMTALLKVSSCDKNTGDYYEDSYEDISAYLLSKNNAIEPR
Method: (§1) Competitive inhibition assay of FVIII binding to solid phase vWF: 50 μg of whole unreduced vWF in 1 ml of 0.01M PO4, 0.15M Nacl, 0.02% NaN3, pH 7.3 (PBS), was incubated with three 1/4 inch in diameter polystyrene beads (Pierce Chemical Company, Rockford, Ill.) per 16 mm in diameter tissue culture well for 2 hours at room temperature. The solution was removed and the wells and the beads were then blocked with 1 ml of PBS containing 0.05% Tween-20 and 3% human serum albumin for 1 hour at room temperature. The wells and the beads were stored in the blocking solution at 4° C. for 16 hours to 10 days before use. The wells and beads were then washed ×3 with PBS. 0.05% Tween-20 and incubated for 11/2 hours at room temperature with 1.3 μg of purified FVIII and 0-100 μg of the competitive ligand in 1 ml of 0.05M imidazole, 0.15M Nacl, 0.02% NaN3, pH 7.0, 3 mM CaCl. The beads then were washed ×5 with PBS 0.05% Tween-20 and incubated for 11/2 hour at room temperature with 1.5×10^6 cpm of ^125 I-monoclonal anti-FVIII antibody C2 (specific activity 3.8×10^9 cpm/mg), in 1 ml of PBS 0.05% Tween-20 containing 0.5% bovine gamma globulin. After incubation, the wells and beads were washed with PBS 0.05% Tween-20×2. The beads were then transferred to clean wells and washed an additional four times and separately counted.
54, 1093-1094 (1974), 10-20 mM EDTA according to Tran et al., Thromb. Haemostas. 50, 547-551 (1983) or 1-1.5M Nacl according to Weiss et al., Thromb. Diath. Haemorrh. 27, 212-219 (1972).

[2] = biological target: T2, purified FVIII (Homo sapiens, UniProt P00451); assay: Crossed immunoelectrophoresis: complex formation of vWF or vWF fragments with FVIII; assay type: binding; details: co-precipitation of 125I-labeled monoclonal anti-FVIII antibody
T2 construct: The purification of FVIII from commercial factor VIII concentrate (Armour Pharmaceutical, Kankakee, IL), by immunoadsorbent chromatography; tissue Armour Pharmaceutical, Kankakee, IL; host or cells: commercial factor VIII concentrate, purified in house by immunoadsorbent chromatography
T2 sequence (P00451 1668-2351 limits assumed): T1 sequence (P00451 1668-2351 limits assumed)
T2 sequence (P00451 20-759 partner limits assumed): T1 sequence (P00451 20-759 partner limits assumed)
Method: Two dimensional crossed immunoelectrophoresis of vWF was performed as described in Zimmerman et al., Immunoassays: Clinical Laboratory Techniques for the 1980's, pp. 339-349, Alan R. Liss, Inc., New York (1980), with the following modifications. Agarose was poured in a 1.5 cm strip at the bottom of a 10.2 cm×8.3 cm piece of Gelbond (FMC Corporation, Rockland, Me.). Purified vWF or fragments of vWF, FVIII, and ^125 I labeled monoclonal anti-FVIII antibody were mixed in the sample well and electrophoresed. A second gel containing 125-250 μl of rabbit serum containing polyclonal anti-vWF antibodies was then poured and the second dimension was electrophoresed at right angles to the first dimension. Autoradiographs were made of the gels and compared to Coomassie brilliant blue staining of the gels.

[3] = biological target: T3, FVIII binding to solid phase vWF (Homo sapiens, UniProt P00451); assay: Competitive inhibition assay of FVIII binding to solid phase vWF; details: competitive ligand in fluid phase, 0-100 μg in 1 ml
T3 construct: The purification of FVIII from commercial factor VIII concentrate (Armour Pharmaceutical, Kankakee, IL), by immunoadsorbent chromatography; tissue Armour Pharmaceutical, Kankakee, Ill; host or cells: commercial factor VIII concentrate, both proteins purified in house by immunoadsorbent chromatography
T3 sequence (P00451 1668-2351 limits assumed): T1 sequence (P00451 1668-2351 limits assumed)
T3 sequence (P00451 20-759 partner limits assumed): T1 sequence (P00451 20-759 partner limits assumed)
Method: as §1, with “counted. […]” for “counted.”

[4] = biological target: T2, purified FVIII; assay: Binding of purified FVIII to vWF or SP fragment III immobilized on polystyrene beads; details: protein adsorbed on polystyrene beads; detected with 125I-labeled monoclonal anti-FVIII antibody
Method: as §1, with “counted. […]” for “counted.”

complex formation with FVIII [2]: demonstrated complex formation | inhibition of FVIII binding to immobilized vWF (in words) [3]: completely inhibit | binding of purified FVIII to the immobilized protein [4]: bound
Compound: vWF: purified von Willebrand factor from commercial factor VIII concentrate

complex formation with FVIII [2]: unable to bind FVIII | inhibition of FVIII binding to immobilized vWF (in words) [3]: no inhibitory effect
Compound: Reduced and alkylated vWF: vWF after reduction and alkylation

Second part, the compound before the results:

Compound: [Cl-].[Na+] [Nacl]
dissociation of FVIII from vWF ([1]; five washings with imidazole buffer containing 1.5M Nacl): 86 ±1%

Compound: O=C(O)CN(CCN(CC(=O)O)CC(=O)O)CC(=O)O [EDTA]
dissociation of FVIII from vWF ([1]; five washings with imidazole buffered saline containing 20 mM EDTA): 66 ±5%

Compound: [Ca+2].[Cl-].[Cl-] [CaCl2]
dissociation of FVIII from vWF ([1]; five washings with imidazole buffered saline containing 3 mM CaCl2): no FVIII dissociation | dissociation of FVIII from vWF ([1]; five washings with imidazole buffered saline containing 0.25M CaCl2 at 37° C.): 70 ±4%
